Article PMC4691288

Molecular target: WXyn43, GH43 β-xylosidase from Weissella sp. strain 92 (full-length enzyme) (Weissella sp. strain 92)
Assay: SEC

## WXyn43, GH43 β-xylosidase from Weissella sp. strain 92 (full-length enzyme)
  stoichiometry N: 4
